Measurements published in patent US11078465B2, “Alcohol dehydrogenase mutant and application thereof in synthesis of diaryl chiral alcohols” (Jiangnan University, priority 2018, dated 2021).
Residue numbers refer to the chain shown, from its start. Names and notes keep the numbering of the source. “Also recorded” adds a separate entry of the source.

Assays:
Format in all cases: biochemical
[1] = Substrate specificity, specific activity
Description: (§1) Adopting a total reaction system of 200 μL, including: 1.0 mM NADPH, 1.0 mM substrate CPMK and sodium phosphate buffer (PBS, 100 mM, pH 7.0), fully and evenly mixing, maintaining at 30° C. for 2 min, adding an appropriate amount of enzyme solution, and detecting the change in light absorption at 340 nm.
(§2) The enzyme activity was calculated by the following formula: Enzyme activity (U)=EW×V×10^3/(6220×I);
(§3) in the formula, EW is the change in absorbance at 340 nm in 1 min; V is the volume of a reaction solution in mL; 6220 is the molar extinction coefficient of NADPH in L/mol·cm); and 1 is the optical path distance in cm. One activity unit (U) corresponds to the amount of enzyme required to catalyze the oxidation of 1 μmol NADPH per minute under the above conditions.
(§4) The reduction on prochiral carbonyl compounds by the alcohol dehydrogenase mutants obtained in Example 3 was studied. The pro-chiral carbonyl compounds include (4-chlorophenyl)-(pyridin-2-yl)-methanone (CPMK), phenyl-(pyridin-2-yl)-methanone, (4-chlorophenyl)-(phenyl)-methanone, (4-bromophenyl)(phenyl)methanone, (4-fluorophenyl)(phenyl)methanone, (4-methoxyphenyl)-(phenyl)-methanone, (4-nitrophenyl)(phenyl)methanone, 1-(pyridin-2-yl)ethanone, acetophenone, 4′-Chloroacetophenone, 4-chlorophenacyl chloride, ethyl 2-oxo-4-phenylbutanoate (OPBE), ethyl 4-chloro-3-oxobutanoate, and methyl 2-oxo-2-phenylacetate.

[2] = Stereoselectivity (ee) of CPMK reduction, chiral liquid chromatography; conditions: for e.e.: product configuration in brackets
Description: (§5) In an embodiment of the present disclosure, a chromatographic analysis method is as follows: 100 μL of reactant liquid is taken, 500 μL of ethyl acetate is added, shaking is performed for 1-2 min, centrifugation is performed at 12,000 rpm for 2-5 min, supernatant liquid is taken into a centrifuge tube, after an organic phase naturally volatilizes completely, 500 μL of chromatographically pure ethanol is added, and chiral liquid chromatography and gas chromatography are performed to analyze the transformation rate and the ee value.
(§6) Method for determining optical purity ee:
(§7) As: molar concentration of (S)-CPMA obtained by liquid chromatography; and AR: molar concentration of (R)-CPMA obtained by liquid chromatography.

[3] = Asymmetric reduction in 20 mL biocatalytic system, conversion
Description: as §5
The pure (R)-CPMA were recrystallized from ethyl acetate at 4° C. and gave 99.9% optical purity. […] Besides, the conversion cannot reach 100% with 24 h in the asymmetric reduction of (4-bromophenyl)-(phenyl)-methanone and p-nitrobenzophenone due to the low enzyme activity.

[4] = Kinetic analysis of alcohol dehydrogenase and mutants (NADPH oxidation, 340 nm, double reciprocal curve); conditions: substrate CPMK
Description: as §1, §2, §3
A column used for purification was a nickel affinity column HisTrap FF crude, and purification was achieved through affinity chromatography using a histidine tag on recombinant protein. The nickel column was equilibrated with a solution A first, a crude enzyme solution was loaded, a penetrating peak was further eluted off using the solution A, and after equilibrium, a solution B (20 mM sodium phosphate, 500 mM NaCl, and 1000 mM imidazole, pH 7.4) was used for gradient elution to elute off the recombinant protein bound to the nickel column, so as to obtain the recombinant alcohol dehydrogenase mutant. The purified protein was subjected to activity measurement (CPMK as substrate, and NADPH as coenzyme) and SDS-PAGE analysis. […] The purified alcohol dehydrogenase protein was then replaced into a Tris-HCl (100 mM, pH 7.0) buffer using a Hi Trap Desalting column (GE Healthcare).
The activity of KpADH at different substrate concentrations and coenzyme concentrations was determined, and a double reciprocal curve was made based on the reciprocal of activity and substrate concentration to calculate kinetic parameters.

[5] = Stereoselectivity on different substrates; conditions: for Stereoselectivity (ee): configuration in brackets
Description: as §5, §6, §7, §4
All the products above were recrystallized from ethyl acetate and gave more than 99.9% optical purity.

[6] = Stereoselectivity on different substrates; conditions: configuration in brackets
Description: as §5, §6, §7, §4

[7] = substrate [drawing 6], 4-chlorophenacyl chloride
[8] = substrate [drawing 9], ethyl 4-chloro-3-oxobutanoate
[9] = substrate [drawing 10], acetophenone
[10] = substrate [drawing 11], 4-chloroacetophenone
[11] = substrate [drawing 12], 4-chlorobenzoyl chloride
[12] = substrate [drawing 16], (4-bromophenyl)-(phenyl)-methanone
[13] = substrate [drawing 17], p-nitrobenzophenone
[14] = substrate [drawing 14], likely CPMK (values partly match Table 4)

B1: E214S/S237C: serine for glutamate at position 214 and cysteine for serine at position 237 of SEQ ID No. 2 (protein)
chain: MSVLISGASGYIAKHIVRVLLEQNYKVIGTVRSQDKADKLLKQYNNPNLSYEIVPEIANLDAFDDIFKKHGKEIKYVIHAASPVNFGAKDLEKDLVIPAINGTKNMFEAIKKYAPDTVERVVMTASYASIMTPHRQNDPTLTLDEETWNPVTEENAYENVFTAYCASKTFAEKEAWKFVKENSDAVKFKLTTIHPSFVFGPQNFDEDVTKKLNSTCEIINGLLHAPFDTKVEKTHFCQFIDVRDVAKTHVLGFQKDELINQRLLLCNGAFSQQDIVNVFNEDFPELKGQFPPEDKDTDLNKGVTGCKIDNEKTKKLLAFEFTPFHKTIHDTVYQILHKEGRV
modifications: Protein translated from synthetic DNA
specific activity ([1]; substrate [drawing 1]): 0.19 U/mg
specific activity ([1]; substrate [drawing 2]): 0.09 U/mg
specific activity ([1]; substrate [drawing 3]): 0.25 U/mg
specific activity ([1]; substrate [drawing 4]): 5.69 U/mg
specific activity ([1]; substrate [drawing 5]): 2.55 U/mg
specific activity [1, 7]: 5.96 U/mg
specific activity ([1]; substrate [drawing 7]): 15.58 U/mg
specific activity ([1]; substrate [drawing 8]): 30.69 U/mg
specific activity [1, 8]: 1.59 U/mg
configuration of product / stereoselectivity in words [2]: inversion from the R configuration to the S configuration; also recorded: (S)-CPMA
e.e. [2]: 52.0 (S)
Conversion rate ([3]; 4-chlorobenzoyl chloride 100 mM, 1 h): 66%
Conversion rate ([3]; 4-chlorobenzoyl chloride 100 mM, 2 h): 79%
Conversion rate ([3]; 4-chlorobenzoyl chloride 100 mM, 3 h): 90%
Conversion rate ([3]; 4-chlorobenzoyl chloride 100 mM, 4 h): 98%
Conversion rate ([3]; 4-chlorobenzoyl chloride 100 mM, 6 h): 99.2%
Conversion rate ([3]; 4-chlorobenzoyl chloride 100 mM, 8 h): 99.8%
Conversion rate ([3]; 4-chlorobenzoyl chloride 100 mM, 12 h): >99.9%
Conversion rate ([3]; 4-chlorobenzoyl chloride 100 mM, 24 h): >99.9%
Conversion rate ([3]; 4-chlorobenzoyl chloride 200 mM, 1 h): 55%
Conversion rate ([3]; 4-chlorobenzoyl chloride 200 mM, 2 h): 69%
Conversion rate ([3]; 4-chlorobenzoyl chloride 200 mM, 3 h): 76%
Conversion rate ([3]; 4-chlorobenzoyl chloride 200 mM, 4 h): 85.9%
Conversion rate ([3]; 4-chlorobenzoyl chloride 200 mM, 6 h): 96.4%
Conversion rate ([3]; 4-chlorobenzoyl chloride 200 mM, 8 h): 99.1%
Conversion rate ([3]; 4-chlorobenzoyl chloride 200 mM, 12 h): 99.8%
Conversion rate ([3]; 4-chlorobenzoyl chloride 200 mM, 24 h): >99.9%
Conversion rate ([3]; 4-chlorobenzoyl chloride 500 mM, 1 h): 35.6%
Conversion rate ([3]; 4-chlorobenzoyl chloride 500 mM, 2 h): 49.6%
Conversion rate ([3]; 4-chlorobenzoyl chloride 500 mM, 3 h): 66.4%
Conversion rate ([3]; 4-chlorobenzoyl chloride 500 mM, 4 h): 79.3%
Conversion rate ([3]; 4-chlorobenzoyl chloride 500 mM, 6 h): 89.0%
Conversion rate ([3]; 4-chlorobenzoyl chloride 500 mM, 8 h): 95.6%
Conversion rate ([3]; 4-chlorobenzoyl chloride 500 mM, 12 h): 96.9%
Conversion rate ([3]; 4-chlorobenzoyl chloride 500 mM, 24 h): 98.9%
Kcat [4]: 8.33 ± 0.17 s⁻¹
Km [4]: 400 ± 20 µM
Vmax [4]: 12.5 ± 0.16 µM/min/mg
ee value ([5]; substrate 4-chlorobenzoyl chloride): 99.6%
Stereoselectivity (ee) [5, 9]: 98.9 (R)
Stereoselectivity (ee) [5, 10]: 95.6 (R)
Stereoselectivity (ee) [5, 11]: 99.6 (R)
Stereoselectivity (ee) [5, 12]: 90.6 (R)
Stereoselectivity (ee) [5, 13]: 91.9 (R)
Stereoselectivity (ee) ([6]; substrate [drawing 13]): 52.6 (R)
Stereoselectivity (ee) [6, 14]: 52.0 (S)
Stereoselectivity (ee) ([6]; substrate [drawing 15]): 88.1 (R)
Stereoselectivity (ee) ([6]; substrate [drawing 18]): 92.3 (R)

B2: E214V/S237A: valine for glutamate at position 214 and alanine for serine at position 237 of SEQ ID No. 2 (protein)
chain: B1 chain with S214V, C237A
modifications: Protein translated from synthetic DNA
specific activity ([1]; substrate [drawing 1]): 0.16 U/mg
specific activity ([1]; substrate [drawing 2]): 0.12 U/mg
specific activity ([1]; substrate [drawing 3]): 2.37 U/mg
specific activity ([1]; substrate [drawing 4]): 2.86 U/mg
specific activity ([1]; substrate [drawing 5]): 9.21 U/mg
specific activity [1, 7]: 27.07 U/mg
specific activity ([1]; substrate [drawing 7]): 24.47 U/mg
specific activity ([1]; substrate [drawing 8]): 27.64 U/mg
specific activity [1, 8]: 8.03 U/mg
e.e. [2]: 98.5 (R)
Kcat [4]: 8.46 ± 0.27 s⁻¹
Km [4]: 320 ± 30 µM
Vmax [4]: 12.69 ± 0.40 µM/min/mg
Stereoselectivity (ee) [5, 9]: 17.1 (R)
Stereoselectivity (ee) [5, 10]: 97.8 (R)
Stereoselectivity (ee) [5, 11]: 75.2 (R)
Stereoselectivity (ee) [5, 12]: 88.1 (S)
Stereoselectivity (ee) [5, 13]: 85.3 (S)
Stereoselectivity (ee) ([6]; substrate [drawing 13]): 36.6 (R)
Stereoselectivity (ee) [6, 14]: 98.7 (R)
Stereoselectivity (ee) ([6]; substrate [drawing 15]): 54.2 (S)
Stereoselectivity (ee) ([6]; substrate [drawing 18]): 81.8 (S)

B3: E214R/S237C: arginine for glutamate at position 214 and cysteine for serine at position 237 of SEQ ID No. 2 (protein)
chain: B1 chain with S214R
modifications: Protein translated from synthetic DNA
specific activity ([1]; substrate [drawing 1]): 0.26 U/mg
specific activity ([1]; substrate [drawing 2]): 0.18 U/mg
specific activity ([1]; substrate [drawing 3]): 0.36 U/mg
specific activity ([1]; substrate [drawing 4]): 4.21 U/mg
specific activity ([1]; substrate [drawing 5]): 1.96 U/mg
specific activity [1, 7]: 6.69 U/mg
specific activity ([1]; substrate [drawing 7]): 22.48 U/mg
specific activity ([1]; substrate [drawing 8]): 30.69 U/mg
specific activity [1, 8]: 1.88 U/mg
configuration of product / stereoselectivity in words [2]: inversion from the R configuration to the S configuration; also recorded: (S)-CPMA
e.e. [2]: 48.3 (S)
Kcat [4]: 10.4 ± 0.11 s⁻¹
Km [4]: 880 ± 20 µM
Vmax [4]: 15.6 ± 0.16 µM/min/mg
Stereoselectivity (ee) [5, 9]: 98.3 (R)
Stereoselectivity (ee) [5, 10]: 97.2 (R)
Stereoselectivity (ee) [5, 11]: 92.9 (R)
Stereoselectivity (ee) [5, 12]: 89.9 (R)
Stereoselectivity (ee) [5, 13]: 88.0 (R)
Stereoselectivity (ee) ([6]; substrate [drawing 13]): 50.1 (R)
Stereoselectivity (ee) [6, 14]: 48.3 (S)
Stereoselectivity (ee) ([6]; substrate [drawing 15]): 49.8 (R)
Stereoselectivity (ee) ([6]; substrate [drawing 18]): 91.9 (R)

B4: E214N/S237C: asparagine for glutamate at position 214 and cysteine for serine at position 237 of SEQ ID No. 2 (protein)
chain: B1 chain with S214N
modifications: Protein translated from synthetic DNA
specific activity ([1]; substrate [drawing 1]): 0.84 U/mg
specific activity ([1]; substrate [drawing 2]): 0.52 U/mg
specific activity ([1]; substrate [drawing 3]): 0.32 U/mg
specific activity ([1]; substrate [drawing 4]): 7.50 U/mg
specific activity ([1]; substrate [drawing 5]): 7.48 U/mg
specific activity [1, 7]: 10.02 U/mg
specific activity ([1]; substrate [drawing 7]): 17.10 U/mg
specific activity ([1]; substrate [drawing 8]): 13.21 U/mg
specific activity [1, 8]: 5.80 U/mg
configuration of product / stereoselectivity in words [2]: inversion from the R configuration to the S configuration; also recorded: (S)-CPMA
e.e. [2]: 43.6 (S)
Kcat [4]: 5.87 ± 0.13 s⁻¹
Km [4]: 220 ± 20 µM
Vmax [4]: 8.80 ± 0.20 µM/min/mg
Stereoselectivity (ee) [5, 9]: 99.0 (R)
Stereoselectivity (ee) [5, 10]: 97.4 (R)
Stereoselectivity (ee) [5, 11]: 93.6 (R)
Stereoselectivity (ee) [5, 12]: 91.9 (R)
Stereoselectivity (ee) [5, 13]: 90.7 (R)
ee ([5]; substrate p-nitrobenzophenone, (S)): 99.1%
Stereoselectivity (ee) ([6]; substrate [drawing 13]): 51.5 (R)
Stereoselectivity (ee) [6, 14]: 57.1 (S)
Stereoselectivity (ee) ([6]; substrate [drawing 15]): 57.1 (R)
Stereoselectivity (ee) ([6]; substrate [drawing 18]): 99.1 (S)
